The target in the experiment is Y925F-FAK (nonphosphorylatable mutant of FAK/YCam) (human, UniProt Q05397 1-1052, Y925F). The experiment is described as follows: co-IP.
Sequence of Y925F-FAK (nonphosphorylatable mutant of FAK/YCam) (Q05397 whole entry Y925F): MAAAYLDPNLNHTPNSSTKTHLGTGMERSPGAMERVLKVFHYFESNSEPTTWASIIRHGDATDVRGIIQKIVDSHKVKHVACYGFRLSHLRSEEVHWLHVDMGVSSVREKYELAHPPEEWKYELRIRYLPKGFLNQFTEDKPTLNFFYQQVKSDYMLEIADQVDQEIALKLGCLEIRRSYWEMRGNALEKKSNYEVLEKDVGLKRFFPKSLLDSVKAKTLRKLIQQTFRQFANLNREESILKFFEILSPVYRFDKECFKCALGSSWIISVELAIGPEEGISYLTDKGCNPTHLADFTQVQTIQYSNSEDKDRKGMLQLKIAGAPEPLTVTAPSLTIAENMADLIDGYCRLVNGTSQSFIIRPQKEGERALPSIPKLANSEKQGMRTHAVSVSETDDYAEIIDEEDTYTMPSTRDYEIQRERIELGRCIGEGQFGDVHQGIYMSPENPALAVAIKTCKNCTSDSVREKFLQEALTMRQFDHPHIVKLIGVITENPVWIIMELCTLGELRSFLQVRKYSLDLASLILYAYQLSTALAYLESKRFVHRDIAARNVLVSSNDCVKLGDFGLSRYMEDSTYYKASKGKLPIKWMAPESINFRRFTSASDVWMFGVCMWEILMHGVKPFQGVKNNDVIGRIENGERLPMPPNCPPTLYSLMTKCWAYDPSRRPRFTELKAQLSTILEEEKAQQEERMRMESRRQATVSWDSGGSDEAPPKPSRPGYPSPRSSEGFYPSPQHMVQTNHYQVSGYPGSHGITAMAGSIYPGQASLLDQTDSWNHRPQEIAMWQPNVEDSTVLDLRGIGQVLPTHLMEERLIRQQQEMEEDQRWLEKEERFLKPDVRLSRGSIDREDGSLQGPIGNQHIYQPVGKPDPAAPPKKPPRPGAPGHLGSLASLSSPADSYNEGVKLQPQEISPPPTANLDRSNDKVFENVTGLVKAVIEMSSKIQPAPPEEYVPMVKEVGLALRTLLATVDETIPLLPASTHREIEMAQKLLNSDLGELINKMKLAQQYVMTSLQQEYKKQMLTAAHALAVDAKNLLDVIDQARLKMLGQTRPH

B1: paxillin (natural protein)
chain: not shown
In the case of B1, the “fold change of co-precipitated paxillin against wild-type FAK or Y925E-FAK” value turned out to be 3 fold.

These data come from PMC3069021 (Molecular Biology of the Cell, 2011).
